US6759384
No end group written: not given here.

T1: human factor Xa (Enzyme Research Laboratories, Inc.) (human), P00742
T1 chain 1: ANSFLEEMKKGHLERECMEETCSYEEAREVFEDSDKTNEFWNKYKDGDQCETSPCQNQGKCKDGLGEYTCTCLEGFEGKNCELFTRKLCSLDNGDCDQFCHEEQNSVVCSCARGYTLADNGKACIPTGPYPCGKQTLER
T1 chain 2: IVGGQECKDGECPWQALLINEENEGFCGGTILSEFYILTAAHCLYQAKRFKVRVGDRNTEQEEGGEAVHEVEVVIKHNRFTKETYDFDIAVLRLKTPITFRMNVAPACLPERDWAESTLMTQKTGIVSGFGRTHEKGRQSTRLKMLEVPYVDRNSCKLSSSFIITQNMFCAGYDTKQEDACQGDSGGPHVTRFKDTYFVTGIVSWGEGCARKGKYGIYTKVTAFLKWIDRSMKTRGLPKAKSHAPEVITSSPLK


Molecular target: T1, human factor Xa (Enzyme Research …)
Test: chromogenic FXa inhibition

Row | Binder | Ki [µM]
1 | GYIRT-NH2 [G-Y-I-R-T-NH2] | < 100
2 | GYIRH-NH2 [G-Y-I-R-H-NH2] | < 100
3 | Ac-GYIRL-NH2 [Ac-G-Y-I-R-L-NH2] | < 100
4 | GYIRL-NH2 [G-Y-I-R-L-NH2] | < 100
5 | GYIRK-NH2 [G-Y-I-R-K-NH2] | < 100

Second part, the binder after the results:

Row | Ki [µM] | Binder
6 | < 100 | WIREK-NH2 [W-I-R-E-K-NH2]
7 | < 100 | GYIRG-NH2 [G-Y-I-R-G-NH2]
8 | < 100 | Ac-GYIRG-NH2 [Ac-G-Y-I-R-G-NH2]
9 | < 100 | GYIRG (modifications not checked) [G-Y-I-R-G]
10 | < 100 | GYIRI-NH2 [G-Y-I-R-I-NH2]
11 | < 100 | EYIRK-NH2 [E-Y-I-R-K-NH2]
